Results from paper PMC7580981.

Target: IBV polymerase trimeric complex (Pol3): PA-His, PB1, PB2 (influenza B virus)
Test: SPR
Details: natural protein

With chicken ANP32A, purified (GST cleaved) the Kd was 133 nM.
